Measurements as given in patent US20230192841A1 (NANJING LEGEND BIOTECH, published 2023).

Molecular target: T1, human Claudin18.2 (human, UniProt P56856-2 1-261)
T1 construct: whole, on cells; expressed on Dubca, HEK293T, PANC1 cells by lentiviral transduction; endogenous on NUGC4 and KATOIII cells; also called huCLDN18.2; CLDN18.2
Experiment: phage ELISA and cell binding of phage supernatant, HEK293T.huCLDN18.2.Luc cells
Experimental: Phage ELISA was performed to identify clones specific to the target antigens. Individual output phage clones were grown in 96-deep-well plates and rescued by M13KO7 helper phage overnight. To identify clones that bound to antigen proteins, 96-well ELISA microtiter plates were coated with recombinant human HEK293T.huCLDN18.1.Luc and HEK293T.huCLDN18.2.Luc cells respectively in coating buffer overnight at 4° C., and the plates were then blocked with blocking buffer. After blocking, approximately 50 µL per well of phage supernatant from overnight cell culture was added to the plates for 1.5-hour incubation at 4° C. The plates were washed four times, and the HRP-conjugated anti-M13 monoclonal antibody was added to the plates for 45-minute incubation at 4° C. The plates were again washed five times and substrate solution was added to the wells for color developing. Absorbance at 450 nm was measured for each well.
To further identify clones that bind HEK293T.huCLDN18.2.Luc cells, the HEK293T.CLDN18.2.Luc cells were blocked with blocking buffer at room temperature for 1 hour. After blocking, approximately 20 µL per well of phage supernatant from overnight cell culture was added to the cell solutions for 1-hour incubation at room temperature. […] The absorption was measured at 450 nm.

B1: VHH182512 (VHH)
VHH: EVQLVESGGGSVQAGGSLTLSCEASRSTANMAWFRQGPGKEREGVAAAHSDGSTKYADSVKGRFTISKDNGKNTLYLRMNGLKPEEGVMYYCAARGSPWWNSVVALESYAYSYWGQGTQVTVSS
binding result: binds
